Results taken from PMC9719539, “Single-molecule characterization of subtype-specific β1 integrin mechanics” (Nature Communications, 2022).

How the values were obtained:
[1] = target: integrin αVβ3, intact, on K562 αVβ3 stable transfectants (human) (UniProt P06756); test: flow cytometry on cells; saturation binding of cRGDfK-TF5WS to K562 transfectants in L15 medium with 1% BSA and 1 mM Mn2+, no washing; background MFI measured with 10 mM EDTA and subtracted
[2] = target: integrin αVβ5, intact, on K562 αVβ5 stable transfectants (human) (UniProt P06756); test: as above
[3] = target: integrin α5β1, intact, on wild type K562 cells (human (endogenous in K562)) (UniProt P08648); test: flow cytometry on cells; saturation binding of cRGDfK-TF5WS to K562 cells in L15 with 2 µM 12G10 Fab, which stabilizes the EO state (intrinsic affinity for the EO state); no washing
integrin α5β1, intact, on wild type K562 cells (human (endogenous in K562)), sequence (P08648 42-1049, chain 1 of 2): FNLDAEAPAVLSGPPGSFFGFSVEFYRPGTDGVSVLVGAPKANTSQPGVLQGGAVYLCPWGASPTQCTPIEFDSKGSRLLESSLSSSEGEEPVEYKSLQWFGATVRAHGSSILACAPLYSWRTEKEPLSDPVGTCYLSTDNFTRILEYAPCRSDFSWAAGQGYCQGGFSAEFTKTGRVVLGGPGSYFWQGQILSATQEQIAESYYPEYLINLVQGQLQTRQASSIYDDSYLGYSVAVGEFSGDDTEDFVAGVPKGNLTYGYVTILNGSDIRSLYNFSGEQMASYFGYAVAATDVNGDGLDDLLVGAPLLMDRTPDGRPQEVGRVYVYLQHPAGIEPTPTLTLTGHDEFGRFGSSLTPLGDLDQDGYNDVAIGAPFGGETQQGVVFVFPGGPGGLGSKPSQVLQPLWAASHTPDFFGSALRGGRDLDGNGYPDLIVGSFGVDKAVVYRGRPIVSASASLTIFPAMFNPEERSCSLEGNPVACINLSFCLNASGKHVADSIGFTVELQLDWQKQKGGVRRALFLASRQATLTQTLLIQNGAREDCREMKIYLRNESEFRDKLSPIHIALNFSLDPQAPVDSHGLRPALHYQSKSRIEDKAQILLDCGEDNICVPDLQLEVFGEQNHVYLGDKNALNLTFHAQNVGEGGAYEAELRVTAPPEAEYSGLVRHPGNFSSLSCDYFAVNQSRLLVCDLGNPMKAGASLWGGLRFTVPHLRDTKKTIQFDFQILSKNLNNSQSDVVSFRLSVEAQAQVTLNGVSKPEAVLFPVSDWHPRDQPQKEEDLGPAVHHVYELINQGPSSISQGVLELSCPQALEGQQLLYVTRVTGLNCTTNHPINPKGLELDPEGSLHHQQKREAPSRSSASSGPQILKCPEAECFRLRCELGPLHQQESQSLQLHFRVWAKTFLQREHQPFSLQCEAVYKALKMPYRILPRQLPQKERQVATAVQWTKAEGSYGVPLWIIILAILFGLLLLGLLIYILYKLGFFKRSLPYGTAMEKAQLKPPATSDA
integrin α5β1, intact, on wild type K562 cells (human (endogenous in K562)), sequence (P05556 21-798, chain 2 of 2, further chain): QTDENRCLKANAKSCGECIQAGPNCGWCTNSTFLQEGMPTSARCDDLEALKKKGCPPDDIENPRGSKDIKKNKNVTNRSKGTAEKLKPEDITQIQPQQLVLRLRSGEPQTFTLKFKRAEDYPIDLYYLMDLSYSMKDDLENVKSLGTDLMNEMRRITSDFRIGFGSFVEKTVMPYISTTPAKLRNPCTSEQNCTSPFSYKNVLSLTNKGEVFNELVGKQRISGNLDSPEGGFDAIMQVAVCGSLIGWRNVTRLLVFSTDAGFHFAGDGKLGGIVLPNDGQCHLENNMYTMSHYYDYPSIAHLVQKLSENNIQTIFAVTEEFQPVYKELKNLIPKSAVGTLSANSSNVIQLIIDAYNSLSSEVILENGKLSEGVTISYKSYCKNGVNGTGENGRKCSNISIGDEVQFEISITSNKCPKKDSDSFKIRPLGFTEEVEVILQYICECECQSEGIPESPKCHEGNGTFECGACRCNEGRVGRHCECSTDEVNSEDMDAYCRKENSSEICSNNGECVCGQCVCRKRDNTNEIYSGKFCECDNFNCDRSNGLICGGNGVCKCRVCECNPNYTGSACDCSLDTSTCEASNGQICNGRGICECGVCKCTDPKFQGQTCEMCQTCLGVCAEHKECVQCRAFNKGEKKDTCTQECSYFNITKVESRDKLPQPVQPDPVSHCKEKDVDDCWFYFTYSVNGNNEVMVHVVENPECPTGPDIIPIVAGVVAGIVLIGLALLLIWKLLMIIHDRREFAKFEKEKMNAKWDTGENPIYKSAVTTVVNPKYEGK

integrin αVβ5, intact, on K562 αVβ5 stable transfectants (human), sequence (P06756 31-1048, chain 1 of 2): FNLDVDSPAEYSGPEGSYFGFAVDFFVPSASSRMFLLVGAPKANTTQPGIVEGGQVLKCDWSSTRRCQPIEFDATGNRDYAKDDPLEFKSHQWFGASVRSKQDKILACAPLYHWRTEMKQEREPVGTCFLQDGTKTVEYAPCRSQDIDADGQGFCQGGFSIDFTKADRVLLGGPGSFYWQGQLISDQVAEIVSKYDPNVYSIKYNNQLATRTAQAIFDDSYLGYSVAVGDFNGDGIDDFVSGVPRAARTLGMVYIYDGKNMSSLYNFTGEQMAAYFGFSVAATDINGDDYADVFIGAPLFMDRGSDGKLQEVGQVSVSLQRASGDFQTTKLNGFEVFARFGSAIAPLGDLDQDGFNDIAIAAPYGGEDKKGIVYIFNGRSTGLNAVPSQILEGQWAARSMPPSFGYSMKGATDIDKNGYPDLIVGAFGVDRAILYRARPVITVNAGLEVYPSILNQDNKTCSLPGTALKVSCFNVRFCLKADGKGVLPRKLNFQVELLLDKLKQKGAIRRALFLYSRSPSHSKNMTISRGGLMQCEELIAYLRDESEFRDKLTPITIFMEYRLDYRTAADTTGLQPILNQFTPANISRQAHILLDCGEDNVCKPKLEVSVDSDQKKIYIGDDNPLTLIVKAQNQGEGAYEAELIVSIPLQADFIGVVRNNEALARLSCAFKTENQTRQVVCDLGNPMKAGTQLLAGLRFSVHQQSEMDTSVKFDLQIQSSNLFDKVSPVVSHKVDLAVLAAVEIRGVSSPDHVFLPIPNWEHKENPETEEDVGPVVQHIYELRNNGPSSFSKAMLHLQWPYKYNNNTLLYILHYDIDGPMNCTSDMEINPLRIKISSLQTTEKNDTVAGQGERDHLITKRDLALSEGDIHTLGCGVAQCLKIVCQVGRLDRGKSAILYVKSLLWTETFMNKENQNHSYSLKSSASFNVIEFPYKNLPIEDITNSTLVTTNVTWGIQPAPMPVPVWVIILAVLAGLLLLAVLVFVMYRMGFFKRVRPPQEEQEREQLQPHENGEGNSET
integrin αVβ5, intact, on K562 αVβ5 stable transfectants (human), sequence (P18084 24-799, chain 2 of 2, further chain): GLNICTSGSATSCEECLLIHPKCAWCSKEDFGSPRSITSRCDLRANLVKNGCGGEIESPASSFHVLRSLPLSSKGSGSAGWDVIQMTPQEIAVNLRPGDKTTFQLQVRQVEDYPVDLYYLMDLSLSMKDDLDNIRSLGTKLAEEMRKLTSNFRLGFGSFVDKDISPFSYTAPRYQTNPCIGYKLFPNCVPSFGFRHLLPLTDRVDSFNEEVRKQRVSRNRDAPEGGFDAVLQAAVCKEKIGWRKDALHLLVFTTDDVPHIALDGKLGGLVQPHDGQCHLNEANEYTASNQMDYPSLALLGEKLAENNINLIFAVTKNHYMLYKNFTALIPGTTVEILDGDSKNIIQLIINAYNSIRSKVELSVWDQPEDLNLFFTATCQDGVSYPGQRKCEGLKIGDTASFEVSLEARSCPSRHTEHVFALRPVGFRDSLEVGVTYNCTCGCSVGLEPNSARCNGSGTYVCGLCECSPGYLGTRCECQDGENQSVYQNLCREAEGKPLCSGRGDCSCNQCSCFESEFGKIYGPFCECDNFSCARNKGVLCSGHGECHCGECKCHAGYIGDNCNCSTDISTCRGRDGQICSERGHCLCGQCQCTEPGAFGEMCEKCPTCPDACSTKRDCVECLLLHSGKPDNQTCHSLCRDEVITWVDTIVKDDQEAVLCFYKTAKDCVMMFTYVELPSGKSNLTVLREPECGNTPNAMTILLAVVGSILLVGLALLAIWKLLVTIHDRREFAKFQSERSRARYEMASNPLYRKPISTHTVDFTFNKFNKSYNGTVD
integrin αVβ3, intact, on K562 αVβ3 stable transfectants (human), sequence (P06756 31-1048, chain 1 of 2): as the sequence (P06756 31-1048, chain 1 of 2) above
integrin αVβ3, intact, on K562 αVβ3 stable transfectants (human), sequence (P05106 27-788, chain 2 of 2, further chain): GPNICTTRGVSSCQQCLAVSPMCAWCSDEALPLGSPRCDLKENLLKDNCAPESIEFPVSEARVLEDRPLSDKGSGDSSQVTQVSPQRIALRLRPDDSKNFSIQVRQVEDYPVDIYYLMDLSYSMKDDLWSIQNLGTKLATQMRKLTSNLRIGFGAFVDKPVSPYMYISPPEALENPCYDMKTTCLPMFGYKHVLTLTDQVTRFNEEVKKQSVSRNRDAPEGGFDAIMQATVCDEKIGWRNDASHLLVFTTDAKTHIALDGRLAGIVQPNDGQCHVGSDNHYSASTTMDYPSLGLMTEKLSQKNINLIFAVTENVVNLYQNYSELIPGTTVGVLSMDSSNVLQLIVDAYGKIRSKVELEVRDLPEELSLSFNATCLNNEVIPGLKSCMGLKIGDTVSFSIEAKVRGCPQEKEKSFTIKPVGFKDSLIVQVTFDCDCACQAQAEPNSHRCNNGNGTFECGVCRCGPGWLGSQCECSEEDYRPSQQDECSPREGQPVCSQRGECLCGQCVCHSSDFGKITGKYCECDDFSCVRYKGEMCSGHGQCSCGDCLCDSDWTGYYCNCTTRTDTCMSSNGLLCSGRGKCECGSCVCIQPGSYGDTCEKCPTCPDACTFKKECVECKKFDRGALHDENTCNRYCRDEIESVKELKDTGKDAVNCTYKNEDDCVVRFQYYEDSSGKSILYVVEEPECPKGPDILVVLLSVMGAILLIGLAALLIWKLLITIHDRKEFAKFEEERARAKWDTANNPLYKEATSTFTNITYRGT

Kd [1]: 28.3 nM
Kd [2]: 23.9 nM
Kd [3]: 86 nM
Substance: cRGDfK peptide with lysine side chain conjugated with TideFluor5WS
